# Test results taken from patent US20140348785A1 (published 2014).
# Residue numbers refer to the chain shown, from its start. In names and notes the source's numbering stands.
# B1: G52cA (heavy chain) (antibody, V domains shown)
# VH: EVQLVESGGGLVKPGGSLRLSCSASGFDFDNAWMTWVRQPPGKGLEWVGRITGPAEGWSVDYAAPVEGRFTISRLNSINFLYLEMNNLRMEDSGLYFCARTGKYYDFWSGYPPGEEYFQDWGRGTLVTVSS
# VL: SYELTQETGVSVALGRTVTITCRGDSLRSHYASWYQKKPGQAPILLFYGKNNRPSGVPDRFSGSASGNRASLTISGAQAEDDAEYYCSSRDKSGSRLSVFGGGTKLTVL
# B2: E100iA (heavy chain) (antibody, V domains shown)
# VH: B1 VH with A55G, E115A
# VL: B1 VL
# B3: D28A (heavy chain) (antibody, V domains shown)
# VH: B1 VH with D28A, A55G
# VL: B1 VL
# B4: P100gA (heavy chain) (antibody, V domains shown)
# VH: B1 VH with A55G, P113A
# VL: B1 VL
# B5: S56A (heavy chain) (antibody, V domains shown)
# VH: B1 VH with A55G, S59A
# VL: B1 VL
# B6: E100jA (heavy chain) (antibody, V domains shown)
# VH: B1 VH with A55G, E116A
# VL: B1 VL
# B7: F100aA (heavy chain) (antibody, V domains shown)
# VH: B1 VH with A55G, F107A
# VL: B1 VL
# B8: 10E8 monoclonal antibody (full-length IgG) (antibody, V domains shown)
# VH: B1 VH with A55G
# VL: B1 VL
# B9: R95bA (light chain) (antibody, V domains shown)
# VH: B1 VH with A55G
# VL: B1 VL with R96A
# B10: K97A (heavy chain) (antibody, V domains shown)
# VH: B1 VH with A55G, K103A
# VL: B1 VL
# B11: T52A (heavy chain) (antibody, V domains shown)
# VH: B1 VH with T52A, A55G
# VL: B1 VL
# B12: Y100eA (heavy chain) (antibody, V domains shown)
# VH: B1 VH with A55G, Y111A
# VL: B1 VL
# B13: D30A (heavy chain) (antibody, V domains shown)
# VH: B1 VH with D30A, A55G
# VL: B1 VL
# B14: D58A (heavy chain) (antibody, V domains shown)
# VH: B1 VH with A55G, D61A
# VL: B1 VL
# B15: Y98A (heavy chain) (antibody, V domains shown)
# VH: B1 VH with A55G, Y104A
# VL: B1 VL
# B16: S100cA (heavy chain) (antibody, V domains shown)
# VH: B1 VH with A55G, S109A
# VL: B1 VL
# B17: 10E8 IgG alanine variant E53A (heavy chain, Kabat) (antibody, V domains shown)
# VH: B1 VH with A55G, E56A
# VL: B1 VL
# B18: G100dA (heavy chain) (antibody, V domains shown)
# VH: B1 VH with A55G, G110A
# VL: B1 VL
# B19: P100fA (heavy chain) (antibody, V domains shown)
# VH: B1 VH with A55G, P112A
# VL: B1 VL
# B20: W100bA (heavy chain) (antibody, V domains shown)
# VH: B1 VH with A55G, W108A
# VL: B1 VL
# B21: N31A (heavy chain) (antibody, V domains shown)
# VH: B1 VH with N31A, A55G
# VL: B1 VL
# Experiments:
# [1] = target: soluble gp41 MPER peptide RRR-(656-683)-RRR; assay: kinetic binding (ka/kd)
# [2] = target: soluble gp41 MPER peptide RRR-(656-683)-RRR; assay: kinetic binding (ka/kd); mean of three runs
Binder,Kd [1] [nM],Kd [2] [nM]
B1,11.1,
B2,433,
B3,14.3,
B4,691,
B5,10.9,
B6,361,
B7,429,
B8,,6.08
B9,28.6,
B10,24.8,
B11,10.9,
B12,75.9,
B13,11.8,
B14,30.6,
B15,27,
B16,9.65,
B17,395,
B18,315,
B19,757,
B20,93.1,
B21,13,
